Experiment [1] has as its target fHbp subfamily B (Neisseria meningitidis) (UniProt Q9JXV4). The note with it: cited from earlier work.
Experiment [2] addresses fHbp subfamily A (Neisseria meningitidis) (UniProt Q9JXV4). The note with it: cited from earlier work.
Experiment [3] addresses fHbp_10 (1.P10), factor H binding protein with aspartic acid at position 184 (Neisseria meningitidis) (UniProt E6MV22). Kind of experiment: SPR; ProteOn XPR36 (BioRad); fHbp immobilized on a ProteOn GLM sensor chip; increasing concentrations of fH67 injected at 40 µl/min, dissociation 300 seconds; KD calculated with ProteOn manager software; average KD.
Experiment [4] concerns the target fHbp_10 (1.P10) with D184 replaced by K184 (Neisseria meningitidis). The experiment is described as above.

Chain of factor H (P08603 19-1231): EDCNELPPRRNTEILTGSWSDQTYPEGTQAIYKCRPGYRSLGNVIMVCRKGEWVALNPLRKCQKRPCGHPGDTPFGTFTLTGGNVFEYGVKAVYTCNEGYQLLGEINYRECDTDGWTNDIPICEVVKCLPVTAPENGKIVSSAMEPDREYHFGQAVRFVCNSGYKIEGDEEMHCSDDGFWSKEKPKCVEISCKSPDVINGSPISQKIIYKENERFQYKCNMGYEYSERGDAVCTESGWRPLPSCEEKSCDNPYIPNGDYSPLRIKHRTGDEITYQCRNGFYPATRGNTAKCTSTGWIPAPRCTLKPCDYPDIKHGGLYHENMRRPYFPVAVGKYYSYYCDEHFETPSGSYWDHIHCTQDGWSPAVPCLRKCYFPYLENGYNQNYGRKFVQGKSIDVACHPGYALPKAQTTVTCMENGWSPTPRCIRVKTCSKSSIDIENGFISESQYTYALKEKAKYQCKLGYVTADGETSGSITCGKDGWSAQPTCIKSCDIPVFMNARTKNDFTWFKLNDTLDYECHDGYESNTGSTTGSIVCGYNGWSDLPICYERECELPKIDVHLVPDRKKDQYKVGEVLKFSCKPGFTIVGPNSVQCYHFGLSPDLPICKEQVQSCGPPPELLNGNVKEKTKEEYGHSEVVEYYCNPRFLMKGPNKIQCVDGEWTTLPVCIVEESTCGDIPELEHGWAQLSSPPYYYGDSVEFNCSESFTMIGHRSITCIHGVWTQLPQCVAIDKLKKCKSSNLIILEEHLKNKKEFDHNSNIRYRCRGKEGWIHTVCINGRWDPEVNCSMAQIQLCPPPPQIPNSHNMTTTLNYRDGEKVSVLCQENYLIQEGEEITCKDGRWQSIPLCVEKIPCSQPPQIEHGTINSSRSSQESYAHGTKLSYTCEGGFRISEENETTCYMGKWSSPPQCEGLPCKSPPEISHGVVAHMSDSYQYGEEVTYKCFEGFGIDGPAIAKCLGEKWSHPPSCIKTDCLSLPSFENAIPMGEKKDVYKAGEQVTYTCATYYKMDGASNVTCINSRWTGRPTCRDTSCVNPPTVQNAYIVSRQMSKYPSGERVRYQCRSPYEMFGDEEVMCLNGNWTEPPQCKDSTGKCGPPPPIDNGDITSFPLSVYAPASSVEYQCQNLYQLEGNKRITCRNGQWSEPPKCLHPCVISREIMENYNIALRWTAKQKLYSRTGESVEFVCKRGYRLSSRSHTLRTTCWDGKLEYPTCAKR
Chain of fHbp subfamily B (Neisseria meningitidis) (Q9JXV4 20-274): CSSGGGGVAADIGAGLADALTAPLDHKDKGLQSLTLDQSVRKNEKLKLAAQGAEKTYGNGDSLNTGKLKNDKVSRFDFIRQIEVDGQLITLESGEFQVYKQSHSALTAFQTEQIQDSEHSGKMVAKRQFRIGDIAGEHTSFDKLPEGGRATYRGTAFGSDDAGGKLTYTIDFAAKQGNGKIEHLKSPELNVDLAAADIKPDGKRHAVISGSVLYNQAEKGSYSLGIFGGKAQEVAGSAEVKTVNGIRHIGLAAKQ
Chain of fHbp subfamily A (Neisseria meningitidis) (Q9JXV4 20-274): as above
Chain of fHbp_10 (1.P10), factor H binding protein with aspartic acid at position 184 (Neisseria meningitidis) (E6MV22 20-274): as the sequence (Q9JXV4 20-274) above

With factor H (from UniProt P08603), the results for the Kd in experiment [1] and in experiment [2] were 153 nM and 29 nM, respectively.
Regarding “recombinant purified human fH (SCR67) (from UniProt P08603 19-1231) (domain or fragment)”, the results for the Kd in experiment [3] and in experiment [4] were 17.4 nM and 26 nM, respectively.

Values taken from article PMC3479137.
